# Laboratory results as given in patent US10738094B2, “Peptides and combination of peptides for use in immunotherapy against ovarian cancer and other cancers” (immatics biotechnologies GmbH, priority 2015, dated 2020).
# Molecular target: HLA-A*02:01 (Homo sapiens, UniProt P04439, D140Y/D185E/D98H/E176V/E277Q/G131W/G231S/I119V/I121R/I166T/I218V/L300P/L318F/N151K/N90K/P208A/P217A/Q86G/Q94H/R138H/R169H/T345S)
# Experiment: MHC binding assay (UV-ligand exchange, beta2m ELISA)
# Conditions: binding to HLA-A*02:01 ranged by peptide exchange yield (UV-ligand exchange, β2m ELISA)
# Outline: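 UV-cleavable ligand in peptide-MHC complexes was exchanged for test peptide. Exchange yield came from an ELISA on streptavidin-captured complexes diluted 100 fold, detecting β2m with HRP anti-β2m (2 ug/ml, 1 h, 37° C.), TMB, A450.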
row,Substance,Peptide exchange
1,566 (VIADGGIQNV; listed as Homo sapiens) [compound 566],“++” (≥20% = ++)
2,244 (SLFGGTEITI; listed as Homo sapiens) [compound 244],“+++” (≥50 = +++)
3,204 (KIAENVEEV; listed as Homo sapiens) [compound 204],“++” (≥20% = ++)
4,599 (YLLNDASLISV; listed as Homo sapiens) [compound 599],“+++” (≥50 = +++)
5,102 (YLFESEGLVL; listed as Homo sapiens) [compound 102],“+++” (≥50 = +++)
6,569 (KLVDRTWTL; listed as Homo sapiens) [compound 569],“+++” (≥50 = +++)
7,6 (VLVSDGVHSV; listed as Homo sapiens) [compound 6],“+++” (≥50 = +++)
8,619 (ALQDRVPLA; listed as Homo sapiens) [compound 619],“+++” (≥50 = +++)
9,228 (AMQEYIAVV; listed as Homo sapiens) [compound 228],“++” (≥20% = ++)
10,457 (SLLPGNLVEKV; listed as Homo sapiens) [compound 457],“+++” (≥50 = +++)
11,594 (IMLKGDNITL; listed as Homo sapiens) [compound 594],“+++” (≥50 = +++)
12,115 (AIAGAGILYGV; listed as Homo sapiens) [compound 115],“++” (≥20% = ++)
13,33 (VLLSLLEKV; listed as Homo sapiens) [compound 33],“++” (≥20% = ++)
14,304 (MTLGQIYYL; listed as Homo sapiens) [compound 304],“+++” (≥50 = +++)
15,497 (GLLEKLTAI; listed as Homo sapiens) [compound 497],“+++” (≥50 = +++)
16,235 (YLNDLHEVLL; listed as Homo sapiens) [compound 235],“++++” (≥75% = ++++)

row,Substance,Peptide exchange
1,176 (YLMEGSYNKVFL; listed as Homo sapiens) [compound 176],“++” (≥20% = ++)
2,389 (LLADVTHLL; listed as Homo sapiens) [compound 389],“++” (≥20% = ++)
3,374 (FLLQQHLISA; listed as Homo sapiens) [compound 374],“++” (≥20% = ++)
4,407 (YLMDLINFL; listed as Homo sapiens) [compound 407],“+++” (≥50 = +++)
5,397 (YLFGERLLEC; listed as Homo sapiens) [compound 397],“+++” (≥50 = +++)
6,236 (GLLEAKVSL; listed as Homo sapiens) [compound 236],“+++” (≥50 = +++)
7,611 (YLLDDGTLVV; listed as Homo sapiens) [compound 611],“++++” (≥75% = ++++)
8,509 (FLFDTKPLIV; listed as Homo sapiens) [compound 509],“+++” (≥50 = +++)
9,214 (FLLDLDPLLL; listed as Homo sapiens) [compound 214],“+++” (≥50 = +++)
10,25 (FLPDEPYIKV; listed as Homo sapiens) [compound 25],“+++” (≥50 = +++)
11,92 (YLIPFTGIVGL; listed as Homo sapiens) [compound 92],“++” (≥20% = ++)
12,528 (SVAEGRALMSV; listed as Homo sapiens) [compound 528],“+++” (≥50 = +++)
13,39 (SVAPNLPAV; listed as Homo sapiens) [compound 39],“+++” (≥50 = +++)
14,217 (ALIHPVSTV; listed as Homo sapiens) [compound 217],“++” (≥20% = ++)
15,382 (ALQNYIKEA; listed as Homo sapiens) [compound 382],“++” (≥20% = ++)
16,75 (GLLEVMVNL; listed as Homo sapiens) [compound 75],“+++” (≥50 = +++)
